Laboratory results taken from patent US12458691.

Assays:
[1] = target: His-tagged fusion peptide (residue 512-521) (HIV-1 strain BG505); assay: SPR, Fab over His-tagged fusion peptide on Ni-NTA chip, 1:1 fit
[2] = target: FP8-KLH (HIV-1 strain BG505); assay: BLI (Octet), IgG on the sensor, apparent KD with IgG avidity
[3] = target: FP-LS (Aquifex aeolicus (strain VF5)) (UniProt O66529); assay: apparent KD (table head 'Apparent KD value (nM)'); Octet BLI with IgG on the sensor per paragraph 361
[4] = target: FP8-TTHc (MBS activation, 1:1 molar ratio) (HIV-1 strain BG505); assay: Octet, purified conjugate
[5] = target: FP8-TTHc (sulfo-SIAB activation, 1:1 molar ratio) (HIV-1 strain BG505); assay: Octet, purified conjugate
[6] = target: FP8-TTHc (sulfo-SIAB activation, 0.5:1 molar ratio) (HIV-1 strain BG505); assay: Octet, purified conjugate
[7] = target: FP8-3HSH (HIV-1 strain BG505); assay: BLI (Octet), IgG on the sensor, apparent KD with IgG avidity
[8] = target: FP8-1Y12 (HIV-1 strain BG505); assay: as above
[9] = target: FP8-3HSH (HIV-1 strain BG505); assay: apparent KD; Octet BLI, antibody IgG on sensor (method per paragraph 361)
[10] = target: FP8-1Y12 (HIV-1 strain BG505); assay: as above

Chain of FP8-TTHc (sulfo-SIAB activation, 1:1 molar ratio) (HIV-1 strain BG505) (P04958 865-1315, tags left off): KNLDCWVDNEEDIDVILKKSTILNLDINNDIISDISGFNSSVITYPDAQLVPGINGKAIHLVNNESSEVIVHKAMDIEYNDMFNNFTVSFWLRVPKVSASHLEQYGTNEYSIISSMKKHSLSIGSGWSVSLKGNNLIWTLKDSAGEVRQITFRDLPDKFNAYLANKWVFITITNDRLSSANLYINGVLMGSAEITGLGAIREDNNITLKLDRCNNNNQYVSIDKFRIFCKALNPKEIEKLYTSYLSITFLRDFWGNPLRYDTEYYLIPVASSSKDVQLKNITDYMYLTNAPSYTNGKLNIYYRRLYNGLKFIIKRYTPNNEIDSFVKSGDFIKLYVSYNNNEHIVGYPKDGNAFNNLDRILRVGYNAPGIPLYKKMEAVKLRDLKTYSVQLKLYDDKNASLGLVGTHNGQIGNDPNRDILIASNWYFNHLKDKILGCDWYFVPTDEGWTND
Chain of FP8-TTHc (sulfo-SIAB activation, 0.5:1 molar ratio) (HIV-1 strain BG505) (P04958 865-1315, tags left off): as above
Chain of FP8-TTHc (MBS activation, 1:1 molar ratio) (HIV-1 strain BG505) (P04958 865-1315, tags left off): as above
Chain of FP-LS (Aquifex aeolicus (strain VF5)) (O66529 other isoform, or with tags, fused parts or gaps): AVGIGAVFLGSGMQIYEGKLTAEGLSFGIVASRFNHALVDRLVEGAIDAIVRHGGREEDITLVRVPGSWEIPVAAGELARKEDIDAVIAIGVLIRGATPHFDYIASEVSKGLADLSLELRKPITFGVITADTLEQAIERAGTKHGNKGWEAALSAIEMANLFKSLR
Chain of FP8-KLH (HIV-1 strain BG505) (Q10583 17-3414): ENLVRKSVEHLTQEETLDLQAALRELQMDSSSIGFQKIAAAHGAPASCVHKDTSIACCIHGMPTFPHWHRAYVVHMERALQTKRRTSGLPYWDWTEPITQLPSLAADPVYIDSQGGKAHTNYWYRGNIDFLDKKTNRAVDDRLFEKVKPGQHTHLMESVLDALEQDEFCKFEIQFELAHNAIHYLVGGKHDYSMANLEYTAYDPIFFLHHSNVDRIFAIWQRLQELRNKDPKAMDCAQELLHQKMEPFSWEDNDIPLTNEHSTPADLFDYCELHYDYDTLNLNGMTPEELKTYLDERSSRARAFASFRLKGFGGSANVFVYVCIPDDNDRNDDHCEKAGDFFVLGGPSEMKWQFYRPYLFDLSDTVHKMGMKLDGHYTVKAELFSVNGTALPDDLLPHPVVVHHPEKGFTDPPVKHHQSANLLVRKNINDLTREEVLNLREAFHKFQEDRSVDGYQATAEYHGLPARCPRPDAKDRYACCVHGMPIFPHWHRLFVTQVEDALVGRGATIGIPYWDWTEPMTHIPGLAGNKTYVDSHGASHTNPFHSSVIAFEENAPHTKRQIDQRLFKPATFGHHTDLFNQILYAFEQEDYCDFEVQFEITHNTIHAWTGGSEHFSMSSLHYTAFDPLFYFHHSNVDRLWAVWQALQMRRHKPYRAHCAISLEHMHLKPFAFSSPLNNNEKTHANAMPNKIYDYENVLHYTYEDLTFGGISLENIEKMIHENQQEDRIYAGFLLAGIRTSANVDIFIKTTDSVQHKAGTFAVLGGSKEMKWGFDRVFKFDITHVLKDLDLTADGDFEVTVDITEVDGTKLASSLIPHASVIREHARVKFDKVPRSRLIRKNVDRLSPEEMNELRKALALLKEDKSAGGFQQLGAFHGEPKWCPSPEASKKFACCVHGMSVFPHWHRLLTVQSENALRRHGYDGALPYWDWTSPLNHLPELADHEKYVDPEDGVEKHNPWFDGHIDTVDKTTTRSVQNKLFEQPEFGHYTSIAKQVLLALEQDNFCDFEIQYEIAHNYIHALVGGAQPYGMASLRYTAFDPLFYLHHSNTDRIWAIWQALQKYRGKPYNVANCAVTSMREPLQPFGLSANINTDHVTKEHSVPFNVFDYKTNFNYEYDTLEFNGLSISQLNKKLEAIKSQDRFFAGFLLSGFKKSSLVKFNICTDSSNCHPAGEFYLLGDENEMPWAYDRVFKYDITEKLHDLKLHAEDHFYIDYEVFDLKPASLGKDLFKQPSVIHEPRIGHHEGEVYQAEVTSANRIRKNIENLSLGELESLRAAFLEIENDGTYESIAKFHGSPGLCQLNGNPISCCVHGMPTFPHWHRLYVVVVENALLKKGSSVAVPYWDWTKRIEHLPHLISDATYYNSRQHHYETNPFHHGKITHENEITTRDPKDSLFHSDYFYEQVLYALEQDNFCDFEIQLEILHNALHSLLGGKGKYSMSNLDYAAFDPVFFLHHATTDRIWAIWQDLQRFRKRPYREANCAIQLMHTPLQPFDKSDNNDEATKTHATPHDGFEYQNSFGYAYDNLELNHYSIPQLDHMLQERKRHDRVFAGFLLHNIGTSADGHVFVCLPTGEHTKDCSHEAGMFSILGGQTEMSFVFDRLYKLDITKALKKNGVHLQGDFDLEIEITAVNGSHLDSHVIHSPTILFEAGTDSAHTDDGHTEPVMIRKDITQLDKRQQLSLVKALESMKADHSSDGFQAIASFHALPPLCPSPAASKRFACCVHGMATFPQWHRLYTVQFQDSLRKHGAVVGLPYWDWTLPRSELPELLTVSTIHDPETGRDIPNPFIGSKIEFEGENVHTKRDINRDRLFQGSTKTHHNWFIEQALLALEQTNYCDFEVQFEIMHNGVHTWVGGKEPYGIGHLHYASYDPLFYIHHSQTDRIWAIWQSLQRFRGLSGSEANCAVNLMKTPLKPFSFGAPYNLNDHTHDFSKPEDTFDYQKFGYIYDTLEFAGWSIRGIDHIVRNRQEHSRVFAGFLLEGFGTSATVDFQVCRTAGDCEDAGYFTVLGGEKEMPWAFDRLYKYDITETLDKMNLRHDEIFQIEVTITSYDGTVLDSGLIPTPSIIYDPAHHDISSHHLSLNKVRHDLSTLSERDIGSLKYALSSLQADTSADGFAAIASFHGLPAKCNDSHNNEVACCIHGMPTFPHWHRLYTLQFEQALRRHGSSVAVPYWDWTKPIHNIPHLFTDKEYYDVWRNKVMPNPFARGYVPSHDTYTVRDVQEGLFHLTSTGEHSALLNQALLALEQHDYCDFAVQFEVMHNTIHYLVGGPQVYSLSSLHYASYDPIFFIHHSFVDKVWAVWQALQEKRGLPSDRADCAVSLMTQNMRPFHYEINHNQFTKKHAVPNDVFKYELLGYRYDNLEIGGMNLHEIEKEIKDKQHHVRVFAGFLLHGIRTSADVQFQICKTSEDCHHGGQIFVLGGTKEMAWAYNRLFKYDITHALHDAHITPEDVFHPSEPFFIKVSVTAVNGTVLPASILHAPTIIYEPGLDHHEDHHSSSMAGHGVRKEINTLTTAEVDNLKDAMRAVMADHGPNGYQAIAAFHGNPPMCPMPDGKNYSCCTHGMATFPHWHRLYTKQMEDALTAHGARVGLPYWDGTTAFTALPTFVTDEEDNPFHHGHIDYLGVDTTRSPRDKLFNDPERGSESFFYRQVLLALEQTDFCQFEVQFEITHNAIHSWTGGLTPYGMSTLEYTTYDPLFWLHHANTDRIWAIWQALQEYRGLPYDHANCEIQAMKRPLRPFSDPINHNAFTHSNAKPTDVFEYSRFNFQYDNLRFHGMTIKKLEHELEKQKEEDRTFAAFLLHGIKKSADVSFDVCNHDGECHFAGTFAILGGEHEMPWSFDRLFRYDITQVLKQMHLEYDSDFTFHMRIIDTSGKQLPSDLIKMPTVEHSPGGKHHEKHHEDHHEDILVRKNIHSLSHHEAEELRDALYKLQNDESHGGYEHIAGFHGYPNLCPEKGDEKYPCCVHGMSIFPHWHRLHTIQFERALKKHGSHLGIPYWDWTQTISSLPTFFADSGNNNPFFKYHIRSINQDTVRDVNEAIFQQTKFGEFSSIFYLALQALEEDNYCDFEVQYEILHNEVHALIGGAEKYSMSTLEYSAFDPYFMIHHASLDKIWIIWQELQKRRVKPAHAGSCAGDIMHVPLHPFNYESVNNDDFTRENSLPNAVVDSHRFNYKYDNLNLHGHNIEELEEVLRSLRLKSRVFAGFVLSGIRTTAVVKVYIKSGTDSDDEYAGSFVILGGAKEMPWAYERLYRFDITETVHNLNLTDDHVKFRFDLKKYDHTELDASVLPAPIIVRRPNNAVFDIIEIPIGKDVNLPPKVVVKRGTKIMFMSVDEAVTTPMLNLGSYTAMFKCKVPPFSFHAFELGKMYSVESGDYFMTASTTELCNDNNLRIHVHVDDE

VRC34.01 Fab
Kd [1]: 6.17 nM
koff [1]: 0.00924 s⁻¹
kon [1]: 1.5e+06 M⁻¹ s⁻¹

ACS202 (antibody)
Kd [2]: < 0.001 nM

PGT151 (antibody)
Kd [3]: < 0.001 nM
Kd [4]: 2.3 nM
Kd [5]: 2.8 nM
Kd [6]: 3.6 nM
Kd [7]: 47.2 nM
Kd [8]: < 0.001 nM
Kd [9]: < 0.001 nM
Kd [10]: < 0.001 nM
